Data: patent publication US5710244A, “Derivatized calcitonins” (priority 1993, dated 1998)
Numbered stars: 1 amine (or outer) side, 2 acyl side, 3 side chain; on linkers, the order of the positions; unused ones are H or OH. Bridge positions count the residues as written; N and C are the ends. * marks the point of attachment. X1 = 2,2'‑bipyridine‑4,4'‑dicarboxylic acid, O=C(O)c1ccnc(-c2cc(C(=O)*)ccn2)c1; X2 = 2,2'‑bipyridine‑5,5'‑dicarboxylic acid, O=C(O)c1ccc(-c2ccc(C(=O)*)cn2)nc1; Biphenyldicarbonyl(4,4') = O=C(c1ccc(-c2ccc(C(=O)[*:2])cc2)cc1)[*:1]; Pyrazinecarbonyl = O=C(c1cnccn1)*; Nicotinoyl = O=C(c1cccnc1)*

T1: recombinant human calcitonin receptor (human, UniProt P30988)
T1 sequence: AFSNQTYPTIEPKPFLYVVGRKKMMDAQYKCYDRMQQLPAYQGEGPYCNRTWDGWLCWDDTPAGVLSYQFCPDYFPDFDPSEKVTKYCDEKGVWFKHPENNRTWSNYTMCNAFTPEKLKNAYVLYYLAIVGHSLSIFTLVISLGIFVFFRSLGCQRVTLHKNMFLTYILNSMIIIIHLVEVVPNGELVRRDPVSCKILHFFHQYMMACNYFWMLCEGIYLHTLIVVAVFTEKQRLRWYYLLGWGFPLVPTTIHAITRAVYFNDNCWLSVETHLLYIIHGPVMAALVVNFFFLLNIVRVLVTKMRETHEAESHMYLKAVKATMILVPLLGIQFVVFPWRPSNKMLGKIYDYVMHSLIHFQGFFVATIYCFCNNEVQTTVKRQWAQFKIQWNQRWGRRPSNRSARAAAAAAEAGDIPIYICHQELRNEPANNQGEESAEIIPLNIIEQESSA


Tests used:
[1] = tested on: endogenous hamster calcitonin receptor; assay: CRE-linked luciferase (cyclic AMP) induction in BHK cells expressing endogenous hamster calcitonin receptor; assay type: cell-based; conditions: for % SCT EC50, Hamster CT receptor: EC50 as % of salmon calcitonin (SCT) EC50, CRE-luciferase, BHK cells, 4 h induction
Protocol: A BHK cell line expressing the endogenous hamster calcitonin receptor was transfected with plasmid KZ10-20-48 to provide the CRE-inducible luciferase receptor described above. The transfected cells were cultured in selective growth medium containing both 500 μg/mL G418-neomycin and 250 nM methotrexate.
Cells expressing the calcitonin receptor were assayed in triplicate for the induction of the CRE-linked luciferase response to salmon calcitonin (SCT) and derivatized calcitonins at concentrations ranging from 10^-13 M to 10^-6 M. MICROLITE flat bottom tissue culture plates (Baxter Scientific Products, Chicago, Ill.) were set up such that each well contained 2×10^4 cells in 100 μl of selection media, and the cells were grown overnight. SCT and GF43 were prepared at 2X the final assay concentration to give 10^-13 to 10^-6 M in growth medium. Induction was initiated by removing old medium from the wells and adding 100 μl of fresh growth medium and 100 μl of either 2X solution in triplicate sample wells. Uninduced luciferase levels were determined in triplicate wells to which 100 μl of DMEM containing 10% fetal calf serum was added. The plates were incubated for four hours at 37° C., 5% CO2 to allow induction of luciferase. Following induction, the media were removed, and the wells were washed once with 200 μl/well PBS. After the wash, 20 μl of a 1:5 dilution (in sterile water) of the stock Cell Culture Lysis Reagent (Luciferase Assay System, Promega Corp., Madison, Wis.) was added to each well, and the plates were incubated for 15 minutes at room temperature. The plates were transferred to a Labsystems Luminoskan microtiter luminometer (Labsystems Inc., Morton Grove, Ill.) which added 40 μl of Luciferase Assay Substrate (Luciferase Assay System, Promega), mixed the reaction for three seconds and integrated the luciferase signal for two seconds per well. The fold induction of luciferase for each compound was calculated as follows:
Fold induction=Induced signal-Uninduced signal Uninduced signal

[2] = target: endogenous hamster calcitonin receptor (hamster)
[3] = target: T1, recombinant human calcitonin receptor; assay: cell-based or functional assay

Molecule	% SCT EC50, Hamster CT receptor [1] [%]	% SCT EC50 (CRE-linked luciferase induction) [2] [% SCT EC50]	% SCT EC50, Hamster CT receptor (× 10^3) ([1]; EC50 as % of SCT EC50, the factor × 10^3 is printed under the HCT value only)	% SCT EC50 (CRE-linked luciferase induction) [3] [% SCT EC50]
ZP-10: nipecotic acid modified salmon calcitonin	152			
ZP-3: 4-4'-biphenyldicarboxylic acid modified salmon calcitonin	341			
human calcitonin (from UniProt P01258) (peptide)		5900		
human calcitonin [HCT, reference compound]			5.9 × 10^3%	
ZP-2: 2,2'-bipyridine-5,5'-dicarboxylic acid modified salmon calcitonin	125			
ZP-7: 2-Pyrazinoyl-modified salmon calcitonin	155			
{Biphenyldicarbonyl(4,4')}-CSNLSTCVLGKLSQELHKLQTYPRTNTGSGTP-NH2 (disulfide 1-7; SMILES CC(C)C[C@H](NC(=O)[C@H](CCCCN)NC(=O)CNC(=O)[C@H](CC(C)C)NC(=O)[C@@H](NC(=O)[C@@H]1CSSC[C@H](NC(=O)c2ccc(-c3ccc(C(=O)O)cc3)cc2)C(=O)N[C@@H](CO)C(=O)N[C@@H](CC(N)=O)C(=O)N[C@@H](CC(C)C)C(=O)N[C@@H](CO)C(=O)N[C@@H]([C@@H](C)O)C(=O)N1)C(C)C)C(=O)N[C@@H](CO)C(=O)N[C@@H](CCC(N)=O)C(=O)N[C@@H](CCC(=O)O)C(=O)N[C@@H](CC(C)C)C(=O)N[C@@H](Cc1c[nH]cn1)C(=O)N[C@@H](CCCCN)C(=O)N[C@@H](CC(C)C)C(=O)N[C@@H](CCC(N)=O)C(=O)N[C@H](C(=O)N[C@@H](Cc1ccc(O)cc1)C(=O)N1CCC[C@H]1C(=O)N[C@@H](CCCNC(=N)N)C(=O)N[C@H](C(=O)N[C@@H](CC(N)=O)C(=O)N[C@H](C(=O)NCC(=O)N[C@@H](CO)C(=O)NCC(=O)N[C@H](C(=O)N1CCC[C@H]1C(N)=O)[C@@H](C)O)[C@@H](C)O)[C@@H](C)O)[C@@H](C)O) [4-4'-biphenyldicarboxylic acid modified salmon calcitonin]		341		450
X2-CSNLSTCVLGKLSQELHKLQTYPRTNTGSGTP-NH2 (disulfide 1-7; SMILES CC(C)C[C@H](NC(=O)[C@H](CCCCN)NC(=O)CNC(=O)[C@H](CC(C)C)NC(=O)[C@@H](NC(=O)[C@@H]1CSSC[C@H](NC(=O)c2ccc(-c3ccc(C(=O)O)cn3)nc2)C(=O)N[C@@H](CO)C(=O)N[C@@H](CC(N)=O)C(=O)N[C@@H](CC(C)C)C(=O)N[C@@H](CO)C(=O)N[C@@H]([C@@H](C)O)C(=O)N1)C(C)C)C(=O)N[C@@H](CO)C(=O)N[C@@H](CCC(N)=O)C(=O)N[C@@H](CCC(=O)O)C(=O)N[C@@H](CC(C)C)C(=O)N[C@@H](Cc1c[nH]cn1)C(=O)N[C@@H](CCCCN)C(=O)N[C@@H](CC(C)C)C(=O)N[C@@H](CCC(N)=O)C(=O)N[C@H](C(=O)N[C@@H](Cc1ccc(O)cc1)C(=O)N1CCC[C@H]1C(=O)N[C@@H](CCCNC(=N)N)C(=O)N[C@H](C(=O)N[C@@H](CC(N)=O)C(=O)N[C@H](C(=O)NCC(=O)N[C@@H](CO)C(=O)NCC(=O)N[C@H](C(=O)N1CCC[C@H]1C(N)=O)[C@@H](C)O)[C@@H](C)O)[C@@H](C)O)[C@@H](C)O) [2,2'-bipyridine-5,5'-dicarboxylic acid modified salmon calcitonin]		125		199
X1-CSNLSTCVLGKLSQELHKLQTYPRTNTGSGTP-NH2 (disulfide 1-7; SMILES CC(C)C[C@H](NC(=O)[C@H](CCCCN)NC(=O)CNC(=O)[C@H](CC(C)C)NC(=O)[C@@H](NC(=O)[C@@H]1CSSC[C@H](NC(=O)c2ccnc(-c3cc(C(=O)O)ccn3)c2)C(=O)N[C@@H](CO)C(=O)N[C@@H](CC(N)=O)C(=O)N[C@@H](CC(C)C)C(=O)N[C@@H](CO)C(=O)N[C@@H]([C@@H](C)O)C(=O)N1)C(C)C)C(=O)N[C@@H](CO)C(=O)N[C@@H](CCC(N)=O)C(=O)N[C@@H](CCC(=O)O)C(=O)N[C@@H](CC(C)C)C(=O)N[C@@H](Cc1c[nH]cn1)C(=O)N[C@@H](CCCCN)C(=O)N[C@@H](CC(C)C)C(=O)N[C@@H](CCC(N)=O)C(=O)N[C@H](C(=O)N[C@@H](Cc1ccc(O)cc1)C(=O)N1CCC[C@H]1C(=O)N[C@@H](CCCNC(=N)N)C(=O)N[C@H](C(=O)N[C@@H](CC(N)=O)C(=O)N[C@H](C(=O)NCC(=O)N[C@@H](CO)C(=O)NCC(=O)N[C@H](C(=O)N1CCC[C@H]1C(N)=O)[C@@H](C)O)[C@@H](C)O)[C@@H](C)O)[C@@H](C)O) [Bipyridine-modified Calcitonin]		73		97
{nipecotic acid}-CSNLSTCVLGKLSQELHKLQTYPRTNTGSGTP-NH2 (disulfide 1-7) [nipecotic acid modified salmon calcitonin]		152		243
{picolinic acid}-CSNLSTCVLGKLSQELHKLQTYPRTNTGSGTP-NH2 (disulfide 1-7) [Pycolinyl-modified Calcitonin]		98		140
Pyrazinecarbonyl-CSNLSTCVLGKLSQELHKLQTYPRTNTGSGTP-NH2 (disulfide 1-7; SMILES CC(C)C[C@H](NC(=O)[C@H](CCCCN)NC(=O)CNC(=O)[C@H](CC(C)C)NC(=O)[C@@H](NC(=O)[C@@H]1CSSC[C@H](NC(=O)c2cnccn2)C(=O)N[C@@H](CO)C(=O)N[C@@H](CC(N)=O)C(=O)N[C@@H](CC(C)C)C(=O)N[C@@H](CO)C(=O)N[C@@H]([C@@H](C)O)C(=O)N1)C(C)C)C(=O)N[C@@H](CO)C(=O)N[C@@H](CCC(N)=O)C(=O)N[C@@H](CCC(=O)O)C(=O)N[C@@H](CC(C)C)C(=O)N[C@@H](Cc1c[nH]cn1)C(=O)N[C@@H](CCCCN)C(=O)N[C@@H](CC(C)C)C(=O)N[C@@H](CCC(N)=O)C(=O)N[C@H](C(=O)N[C@@H](Cc1ccc(O)cc1)C(=O)N1CCC[C@H]1C(=O)N[C@@H](CCCNC(=N)N)C(=O)N[C@H](C(=O)N[C@@H](CC(N)=O)C(=O)N[C@H](C(=O)NCC(=O)N[C@@H](CO)C(=O)NCC(=O)N[C@H](C(=O)N1CCC[C@H]1C(N)=O)[C@@H](C)O)[C@@H](C)O)[C@@H](C)O)[C@@H](C)O) [2-Pyrazinoyl-modified calcitonin]		155		158
Nicotinoyl-CSNLSTCVLGKLSQELHKLQTYPRTNTGSGTP-NH2 (disulfide 1-7; SMILES CC(C)C[C@H](NC(=O)[C@H](CCCCN)NC(=O)CNC(=O)[C@H](CC(C)C)NC(=O)[C@@H](NC(=O)[C@@H]1CSSC[C@H](NC(=O)c2cccnc2)C(=O)N[C@@H](CO)C(=O)N[C@@H](CC(N)=O)C(=O)N[C@@H](CC(C)C)C(=O)N[C@@H](CO)C(=O)N[C@@H]([C@@H](C)O)C(=O)N1)C(C)C)C(=O)N[C@@H](CO)C(=O)N[C@@H](CCC(N)=O)C(=O)N[C@@H](CCC(=O)O)C(=O)N[C@@H](CC(C)C)C(=O)N[C@@H](Cc1c[nH]cn1)C(=O)N[C@@H](CCCCN)C(=O)N[C@@H](CC(C)C)C(=O)N[C@@H](CCC(N)=O)C(=O)N[C@H](C(=O)N[C@@H](Cc1ccc(O)cc1)C(=O)N1CCC[C@H]1C(=O)N[C@@H](CCCNC(=N)N)C(=O)N[C@H](C(=O)N[C@@H](CC(N)=O)C(=O)N[C@H](C(=O)NCC(=O)N[C@@H](CO)C(=O)NCC(=O)N[C@H](C(=O)N1CCC[C@H]1C(N)=O)[C@@H](C)O)[C@@H](C)O)[C@@H](C)O)[C@@H](C)O) [Nicotinic acid-modified Calcitonin]		71		112
CSNLSTCVLGKLSQELHKLQTYPRTNTGSGTP (N-terminal amino group acylated with isonipecotic acid (amide linkage); C-terminal amide; disulfide Cys1-Cys7) [isonipecotic acid modified salmon calcitonin]		106		146
CSNLSTCVLGKLSQELHKLQTYPRTNTGSGTP (N-terminal amino group acylated with DL-pipecolinic acid (amide linkage); C-terminal amide; disulfide Cys1-Cys7) [DL-pipecolinic acid modified salmon calcitonin]		147		230
